# Test results: patent US20120100070A1
# Target: GLP-1R-GFP stably expressed on HEK293 cells
substance,measurement,value
"GLP-1 (L-GLP-1, [Ala8]GLP-1-Ahx-Cys) (peptide)",EC50 of peptide triggered cyclic AMP (cAMP) accumulation,5 nM
